Source: patent US20250129169A1 (Stanford University, published 2025)

B1: γc-VHH6 (VHH)
VHH: QVQLQESGGGSVQAGGSLRLSCAASGYTYRDYYMGWFRQAPGREREGVASIYTRGSREGSTRYSSSVEGRFTITLDTAKNTLYLQMNSLKPEDTAMYYCAADDRTWLPRVQLGGPRENEYNYWGQGTQVTVSS
notes: also called γC nanobody clone 6
B2: γ scFv2 (P2B9) (scFv)
scFv (VH-linker-VL): QVQLQESGPGLVKPSETLSLTCTVSGGSISSSSYYWGWIRQPPGKGLEWIGSIYYSGSTYYNPSLKSRVTISVDTSKNQFSLKLSSVTAADTAVYYCAGDILTGYALDYWGQGTLVTVSSGGGGSGGGGSGGGGSSYELTQPPSMSVSPGQTARITCSGDALPKQFAFWYQQKPGQAPVLVIYKDTERPSGIPERFSGSSSGTTVTLTITGVQAEDEADYYCQSPDSSGTVEVFGGGTKLTVL
notes: also called γc-scFv2 (P2B9)
B3: γc-VHH4 (VHH)
VHH: QVQLQESGGGSVQAGGSLRLSCTASGFTFNEANHMGWYRQAPGNECELVSTISSDGTTYYPDSVKGRFTISQDNAKKTAFLQMNSLKPEDTAVYYCAADQSRRGSLCLGQGTQVTVSS
notes: also called γC nanobody clone 4
B4: γc-VHH3 (VHH)
VHH: QVQLQESGGGSVQAGGSLRLSCAASGYTYSKNWYMGWFRQTPGKEREGVAVIAYDDWPTYADSVKGRFTISKDNTKNTLYLQMNSLKPEDTAMYYCAARQLGGDYCYFPNLSRFCYNYWGQGTQVTVSS
notes: also called γC nanobody clone 3

Legend:
Human γC ECD [1] = target: T1, Human γC ECD (human, UniProt P31785 23-262, biotinylated (site not stated)); test: SPR; biotinylated human γc ECD on streptavidin chip, VHH as analyte; KD from fit to steady-state responses [Cont.]
T1 construct: extracellular domain; Biotinylated and held on a streptavidin chip for SPR; also called common gamma; biotinylated human γC ECD
T1 sequence (looked up): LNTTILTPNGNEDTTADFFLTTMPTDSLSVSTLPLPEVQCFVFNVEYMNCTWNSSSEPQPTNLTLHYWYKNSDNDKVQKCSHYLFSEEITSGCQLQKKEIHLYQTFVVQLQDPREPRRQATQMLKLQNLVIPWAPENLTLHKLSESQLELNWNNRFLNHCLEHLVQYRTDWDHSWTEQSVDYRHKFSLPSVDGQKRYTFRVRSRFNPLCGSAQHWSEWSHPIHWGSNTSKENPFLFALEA
Method: (§1) FIGS. 2A-2H show data on SPR validation of IL-2Rβ- and γc-VHHs and agonist screening in YT-1 cells. (A) Biotinylated human IL-2Rβ ECD was immobilized on a streptavidin (SA) sensor chip, and varying concentrations of IL-2Rβ VHH were applied to determine binding parameters using SPR. Sensorgrams are shown on the left, and steady state binding is plotted on the right. Binding affinities (KD) were determined by fitting to steady state response values. (B) Biotinylated human γC ECD was immobilized on a SA chip, and varying concentrations of γc VHH were flowed over the chip to determine binding. […] (C) Steady-state binding affinities between VHH/scFv and IL-2R, as determined by SPR. Values for scFv affinities are derived from patent US20160367664A1 (Wang et al., 2016). (D) Table of pSTAT5 Eₘₐₓ values for the indicated VHH pairings. (E) Tuning IL-2 activity via generation of acid-base VHH zipper pairings. (F) Tuning IL-2 activity via generation of 2:1 β:γc or γc:β stoichiometries. VHH binding modules are linked together in a tripartite (β-γc-β or γc-β-γc) manner. Graph axes are represented as in (E). (G) Dose-response relationship of pSTAT5 geometric mean flurorescence intensities (gMFI) of selected agonists. (H) Corresponding histograms showing STAT5 activity in YT-1 cells treated with human IL-2 vs. IL-2 surrogate agonists at saturating concentration.

Human γC ECD [2] = target: T1, Human γC ECD; test: SPR, steady-state binding affinity (drawn table)
Method: as §1

Human γC ECD [3] = target: T1, Human γC ECD; test: drawn table of affinities; the scFv value is derived from patent US20160367664A1 (Wang et al., 2016), not measured in this filing

Binder | Kd (Human γC ECD [1]) | Kd (Human γC ECD [2]) | Kd (Human γC ECD [3])
B1 | 68.6 nM | 69 nM | 
B2 |  |  | 79 nM
B3 | 19.7 nM | 20 nM | 
B4 | 6.7 nM | 7 nM | 
